This note sets out measurements from US20100272734A1 (Novartis, published 2010).

One assay deals with T1, human TGF-βRII/Fc (human, UniProt P37173 24-159).
T1 construct: Bought counter-target
The assay is described as follows: specificity ELISA on coated recombinant protein.

The target of the next assay is T2, mouse TGF-βRI (ALK-5)/Fc (mouse, UniProt Q64729 30-125, limits assumed).
T2 construct: Bought counter-target
T2 sequence (looked up): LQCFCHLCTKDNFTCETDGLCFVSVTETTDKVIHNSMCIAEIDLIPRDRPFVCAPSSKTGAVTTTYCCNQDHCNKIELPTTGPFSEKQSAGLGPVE
The assay can be described thus: specificity ELISA on coated recombinant protein.

Assay [1] deals with T3, human Activin RIB (ALK-4)/Fc (human, UniProt P36896 24-126).
T3 construct: Bought counter-target
T3 sequence (looked up): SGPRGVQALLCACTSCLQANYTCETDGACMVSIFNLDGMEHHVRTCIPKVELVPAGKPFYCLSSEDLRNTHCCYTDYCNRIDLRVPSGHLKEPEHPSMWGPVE
The assay can be described thus: specificity ELISA on coated recombinant protein. On the technique in general: ELISA stands for enzyme-linked immunosorbent assay.
Method: (§1) The specificity of anti-ActRIIB Fab antibodies to human ActRIIB and crossreactivity to human ActRIIA and mouse ActRIIB is evaluated in an ELISA setting. Additionally, binding to related receptors (counter-targets: human TGF-βRII/Fc (R&D systems), mouse TGF-βRI (ALK-5)/Fc (R&D systems), human Activin RIB (ALK-4)/Fc (R&D systems)) is determined. For this 5 μg/ml (if not stated otherwise) of the recombinant proteins diluted in PBS are added to a black 96-well flat-bottom MaxiSorp™ plate and incubated over night at 4° C. for coating.
(§2) The next morning, the plates are washed with TBST and blocked with MTBST. After washing the plates several times, 5 μg/ml anti-ActRIIB Fab are added and incubated for 2.5 hrs. Subsequently antigen bound Fabs are detected by incubation with alkaline phosphatase conjugated goat-anti-human IgG Fab-specific, followed by addition of AttoPhos fluorescence substrate.

Assay [2] addresses endogenous human ActRIIB on cells (human) (UniProt Q13705). The assay can be described thus: cell-based or functional assay.

Sequence of endogenous human ActRIIB on cells (human) (Q13705 19-512 E459A limits assumed): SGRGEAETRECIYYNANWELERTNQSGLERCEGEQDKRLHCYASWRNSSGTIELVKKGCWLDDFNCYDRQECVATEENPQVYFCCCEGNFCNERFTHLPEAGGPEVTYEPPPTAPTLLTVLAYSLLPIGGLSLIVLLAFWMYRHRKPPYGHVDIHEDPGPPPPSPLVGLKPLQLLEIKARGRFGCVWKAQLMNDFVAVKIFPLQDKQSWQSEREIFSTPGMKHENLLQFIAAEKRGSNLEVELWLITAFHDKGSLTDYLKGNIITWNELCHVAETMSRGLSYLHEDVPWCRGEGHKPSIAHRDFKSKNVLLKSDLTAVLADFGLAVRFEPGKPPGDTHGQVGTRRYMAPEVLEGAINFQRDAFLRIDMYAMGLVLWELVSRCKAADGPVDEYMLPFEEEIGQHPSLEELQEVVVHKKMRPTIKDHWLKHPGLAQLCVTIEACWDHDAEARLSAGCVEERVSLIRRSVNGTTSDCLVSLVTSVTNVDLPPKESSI
T1 sequence (P37173 24-159 limits assumed): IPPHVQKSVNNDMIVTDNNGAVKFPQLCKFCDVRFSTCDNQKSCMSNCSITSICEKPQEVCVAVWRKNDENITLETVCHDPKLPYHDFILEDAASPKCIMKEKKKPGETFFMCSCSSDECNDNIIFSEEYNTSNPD
Method for human TGF-βRII/Fc: as §1, §2
Method for mouse TGF-βRI (ALK-5)/Fc: as §1, §2

B1: MOR07079 Fab (Fab, V domains shown)
VH: QVQLVQSGAEVKKPGASVKVSCKASGYTFTSSYINWVRQAPGQGLEWMGTINPVSGNTSYAQKFQGRVTMTRDTSISTAYMELSSLRSEDTAVYYCARGGWFDYWGQGTLVTVSS
VL: DIALTQPASVSGSPGQSITISCTGTSSDVGSYNYVNWYQQHPGKAPKLMIYGVSKRPSGVSNRFSGSKSGNTASLTISGLQAEDEADYYCQAWTSKMAGVFGGGTKLTVL
notes: Parental HuCAL GOLD Fab (Fab-FH format from pMORPH X9_FH vector); also called MOR7079; Fab-FH
With B1, the binding result (in the assay with human TGF-βRII/Fc; with mouse TGF-βRI (ALK-5)/Fc; in assay [1]) was “no binding (tested: 5 µg/ml Fab)” in each case.

B2: Activin A (ligand, UniProt P08476 311-426, looked up)
chain: GLECDGKVNICCKKQFFVSFKDIGWNDWIIAPSGYHANYCEGECPSHIAGTSGSSLSFHSTVINHYRMRGHSPFANLKSCCVPTKLRPMSMLYYDDGQNIIKKDIQNMIVEECGCS
For B2, in assay [2], the Emax of ligand-induced inhibition of skeletal muscle differentiation in the presence of MOR08159 (10 µg/ml) was 61.9 % control; the Emax of ligand-induced inhibition of skeletal muscle differentiation in the presence of MOR08213 (10 µg/ml) is 57.2 % control; the Emax of ligand-induced inhibition of skeletal muscle differentiation, no Ab worked out at 37.1 % control; the IC50 of ligand-induced inhibition of skeletal muscle differentiation in the presence of MOR08159 (10 µg/ml) is 0.0347 µg/mL. Besides, in assay [2], the IC50 of ligand-induced inhibition of skeletal muscle differentiation in the presence of MOR08213 (10 µg/ml) amounted to 0.0419 µg/mL and the IC50 of ligand-induced inhibition of skeletal muscle differentiation, no Ab was determined as 0.0147 µg/mL.

B3: GDF-11 (ligand, UniProt O95390 299-407, looked up)
chain: NLGLDCDEHSSESRCCRYPLTVDFEAFGWDWIIAPKRYKANYCSGQCEYMFMQKYPHTHLVQQANPRGSAGPCCTPTKMSPINMLYFNDKQQIIYGKIPGMVVDRCGCS
In the case of B3, in assay [2], the Emax of ligand-induced inhibition of skeletal muscle differentiation in the presence of MOR08159 (10 µg/ml) came to 22.1 % control; the Emax of ligand-induced inhibition of skeletal muscle differentiation in the presence of MOR08213 (10 µg/ml) worked out at 27.1 % control; the Emax of ligand-induced inhibition of skeletal muscle differentiation, no Ab stood at 23.2 % control; the IC50 of ligand-induced inhibition of skeletal muscle differentiation in the presence of MOR08159 (10 µg/ml) came to 0.0133 µg/mL. Besides, in assay [2], the IC50 of ligand-induced inhibition of skeletal muscle differentiation in the presence of MOR08213 (10 µg/ml) came to 0.012 µg/mL and the IC50 of ligand-induced inhibition of skeletal muscle differentiation, no Ab was 0.007 µg/mL.
